# According to US20220298217A1 (FLAGSHIP PIONEERING INNOVATIONS VI, published 2022):
# “And” between values parts separate entries of the source, which are not always exact repeats. Identical values can stand only once.
# Biological target: T1, Flag-PTHR1-YFP (parathyroid hormone receptor 1) expressed in transfected HEK293T cells (human, UniProt Q03431 27-593)
# T1 sequence (looked up): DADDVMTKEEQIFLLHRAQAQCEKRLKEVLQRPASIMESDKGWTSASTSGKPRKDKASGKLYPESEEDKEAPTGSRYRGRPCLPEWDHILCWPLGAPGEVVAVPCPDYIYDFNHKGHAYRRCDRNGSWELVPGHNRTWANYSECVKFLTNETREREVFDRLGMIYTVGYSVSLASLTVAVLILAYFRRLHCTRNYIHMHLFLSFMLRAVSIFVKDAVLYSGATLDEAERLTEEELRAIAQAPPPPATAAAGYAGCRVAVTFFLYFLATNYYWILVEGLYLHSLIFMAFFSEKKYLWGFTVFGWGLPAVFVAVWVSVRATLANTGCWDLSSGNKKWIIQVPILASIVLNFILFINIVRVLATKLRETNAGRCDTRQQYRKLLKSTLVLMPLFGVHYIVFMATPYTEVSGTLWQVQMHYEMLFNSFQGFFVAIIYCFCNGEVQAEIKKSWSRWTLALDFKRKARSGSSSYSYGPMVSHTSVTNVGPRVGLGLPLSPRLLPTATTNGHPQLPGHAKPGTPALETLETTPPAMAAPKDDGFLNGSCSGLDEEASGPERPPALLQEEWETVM
# Assay: cell-based or functional assay
Binder,"arrestin 1, plate 17: -log10EC50","arrestin 2, plate 18: -log10EC50","arrestin 1, plate 13: -log10EC50","arrestin 1, plate 13: Emax","arrestin 1, plate 23: -log10EC50","arrestin 1, plate 23: Emax","arrestin 2, plate 24: -log10EC50","arrestin 2, plate 24: Emax","arrestin 1, plate 17: Emax","arrestin 2, plate 18: Emax"
AVAEIQLMHQRAKWLEELKLKDDLRKILEDVY [R2-30],-7.88 -log10EC50 and -8.28 -log10EC50,-7.92 -log10EC50 and -8.3 -log10EC50,–,–,–,–,–,–,–,–
AVAEIQLMHQRAKWGLDLELRARLREILRDVY [R2-31],-8 -log10EC50 and -8.53 -log10EC50,-8.12 -log10EC50 and -8.18 -log10EC50,–,–,–,–,–,–,–,–
AVAEIQLMHQRAKWKLDLELAVSLRKILEDVY [R2-27],-7.92 -log10EC50 and -8.02 -log10EC50,-7.65 -log10EC50 and -8.08 -log10EC50,–,–,–,–,–,–,–,–
AVAEIQLMHQRAKWKILEELLKILIDLLKQYI [R2-48],–,–,-5.72 -log10EC50,15.1,-15.4 -log10EC50,6.53,-10.7 -log10EC50,6.67,–,–
AVAEIQLMHQRAKWGLDLELAVKLQEILKDVL [R2-28],-15 -log10EC50,-6.1 -log10EC50,–,–,–,–,–,–,6.35,18.5
AVAEIQLMHQRAKWKLELELKEKIRKLLEDLL [R2-29],-8.15 -log10EC50 and -8.77 -log10EC50,-8.39 -log10EC50 and -8.46 -log10EC50,–,–,–,–,–,–,–,–
AVAEIQLMHQRAKWGLELELKEKLRKILEDVY [R2-26],-7.89 -log10EC50 and -7.57 -log10EC50,-7.79 -log10EC50 and -7.9 -log10EC50,–,–,–,–,–,–,–,–
AVAEIQLMHQRAKWSLREELEKLLKELLKEYI [R2-44],–,–,-8.54 -log10EC50,7.41,-7.82 -log10EC50 and -8.55 -log10EC50,–,-7.99 -log10EC50 and -5.45 -log10EC50,–,–,–
AVAEIQLMHQRAKWELQEIGIAITLRLLARYI [R2-43],–,–,-8.31 -log10EC50,7.23,-6.3 -log10EC50 and -8.03 -log10EC50,–,-6.24 -log10EC50 and -7.91 -log10EC50,–,–,–
AVAEIQLMHQRAKWSILEELLKILTALLDEYI [R2-46],–,–,-6.25 -log10EC50,17.3,-6.35 -log10EC50 and -6.4 -log10EC50,–,-6.26 -log10EC50 and -6.27 -log10EC50,–,–,–
AVAEIQLMHQRAKWDVLIELAKLLAELLRRYH [R2-47],–,–,-5.84 -log10EC50,15.7,-6.19 -log10EC50 and -5.44 -log10EC50,–,-5.46 -log10EC50 and -5.86 -log10EC50,–,–,–
AVAEIQLMHQRAKWGLEIELLKLLLSLLKEYI [R2-45],–,–,-6.32 -log10EC50,20.4,-6.33 -log10EC50 and -6.27 -log10EC50,–,-6.47 -log10EC50 and -6.59 -log10EC50,–,–,–

# Same assay, conditions: not given
Binder,"arrestin 1, plate 9: -log10EC50","arrestin 1, plate 9: Emax","arrestin 1, plate 19: -log10EC50","arrestin 2, plate 20: -log10EC50","arrestin 1, plate 15: -log10EC50","arrestin 1, plate 15: Emax","arrestin 1, plate 25: -log10EC50","arrestin 1, plate 25: Emax","arrestin 2, plate 26: -log10EC50","arrestin 2, plate 26: Emax"
AVAEIQLMHQRAKWGVELQLKVDLRRILEDVY [R2-35],-3.53 -log10EC50,16.9,-6.57 -log10EC50 and -7.44 -log10EC50,-7.67 -log10EC50 and -7.82 -log10EC50,–,–,–,–,–,–
AVAEIQLMHQRAKWKLELELKAFLDQILKDVL [R2-36],-8.83 -log10EC50,7.4,-8.33 -log10EC50 and -8.54 -log10EC50,-8.27 -log10EC50 and -8.6 -log10EC50,–,–,–,–,–,–
GVAMLQIMHDLAKIKQELELKDSMKKILEDVL [R2-50],–,–,–,–,-5.92 -log10EC50,32.9,-13.8 -log10EC50,6.47,-13.9 -log10EC50,6.62
AVAEIQLMHQRAKWLNELRLKEEMRKILEDVY [R2-33],-8.23 -log10EC50,7.38,-7.99 -log10EC50 and -8.4 -log10EC50,-8.09 -log10EC50 and -8.12 -log10EC50,–,–,–,–,–,–
AVAEIQLMHQRAKWEIQEIGIKITLELLKEYI [R2-37],-5.08 -log10EC50,19.4,-3.6 -log10EC50 and -6.48 -log10EC50,-6.3 -log10EC50 and -6.41 -log10EC50,–,–,–,–,–,–
AVAEIQLMHQRAKWELEFELFREFLKLLVDFF [I3 (R1-97)],–,–,–,–,–,–,-11.5 -log10EC50,10.3,-6.36 -log10EC50,21.5
AVAEIQLMHQRAKWRLEIELLKKLKEILKDVY [R2-34],-8.56 -log10EC50,7.29,-8.18 -log10EC50 and -8.48 -log10EC50,-8.09 -log10EC50 and -8.34 -log10EC50,–,–,–,–,–,–
SVMMIQVMHDLAKIRAEYELREMLLRLLEEIF [R2-8],-8.43 -log10EC50,6.29,–,–,–,–,–,–,–,–
AVAEIQLMHQRAKWKLELELKVKLLEILKDVY [R2-25],–,–,–,–,-8.27 -log10EC50 and -8.59 -log10EC50,–,–,–,–,–

# Same assay, conditions: not given
Binder,"arrestin 1, plate 11: -log10EC50","arrestin 1, plate 11: Emax","arrestin 1, plate 21: -log10EC50","arrestin 1, plate 21: Emax","arrestin 2, plate 22: -log10EC50","arrestin 2, plate 22: Emax","arrestin 1, plate 7: -log10EC50","arrestin 2, plate 8: -log10EC50","arrestin 2, plate 10: -log10EC50","arrestin 1, plate 1: -log10EC50"
AVAEIQLMHQRAKWDLLIELVKLLHELLKEYI [R2-40],-6.24 -log10EC50,14.7,-5.44 -log10EC50,11.4,-6.07 -log10EC50,20.9,–,–,–,–
AVAEIQLMHQRAKWEIQEIGIKITLDLLQTLK [R2-41],–,–,-8.42 -log10EC50,6.44,-6.03 -log10EC50,23.7,–,–,–,–
AVAEIQLMHQRAKWELEYELFEMFLKLLEEIF [I1 (R1-100)],–,–,–,–,–,–,-6.22 -log10EC50 (2×) and -6.24 -log10EC50,-5.41 -log10EC50 and -7.67 -log10EC50 and -6.27 -log10EC50,–,–
AVAEIQLMHQRAKWLNELRLKEEMRKILEDVY [R2-33],–,–,–,–,–,–,–,–,-8.31 -log10EC50,–
AVAEIQLMHQRAKWELQEIGIKITLDLLEAYL [R2-39],2.64 -log10EC50,15.4,-6.11 -log10EC50 and -6.23 -log10EC50,–,-6.95 -log10EC50 and -6.4 -log10EC50,–,–,–,–,–
AVAEIQLMHQRAKWIQDARRRAFLHKLIAEIH [LA-PM-FL (R1-81)],–,–,–,–,–,–,–,–,–,-8.58 -log10EC50 and -8.76 -log10EC50 and -8.45 -log10EC50
AVAEIQLMHQRAKWAIQEIGIKITRELLERYL [R2-42],-7.98 -log10EC50,7.87,-4.99 -log10EC50 and -7.96 -log10EC50,–,-7.63 -log10EC50 and -8.09 -log10EC50,–,–,–,–,–
AVAEIQLMHQRAKWELLEELLKILLELLKEYI [R2-38],–,–,-10.7 -log10EC50,6.36,-14 -log10EC50,6.45,–,–,–,–
SVMMIQVMHDLAKIRAEYELREMLLRLLEEIF [R2-8],–,–,–,–,–,–,–,–,-9.46 -log10EC50,–
GVAMIQIMHDIAKIRAEYELREMLLRLLEEIF [R2-2],–,–,–,–,–,–,-14 -log10EC50 and -12.2 -log10EC50,5.1 -log10EC50 and -14.8 -log10EC50,–,–

# Same assay, conditions: not given
Binder,"arrestin 2, plate 2: -log10EC50","arrestin 1, plate 5: -log10EC50","arrestin 2, plate 6: -log10EC50","arrestin 2, plate 16: -log10EC50"
AVAEIQLMHQRAKWIQDARRRAFLHKLIAEIH [LA-PM-FL (R1-81)],-8.52 -log10EC50 and -8.51 -log10EC50 and -8.44 -log10EC50,–,–,–
AVAEIQLMHQRAKWELEFELFREFLKLLVDFF [I3 (R1-97)],–,-5.38 -log10EC50 and -8.1 -log10EC50 and -6.02 -log10EC50,-6.2 -log10EC50 and -5.16 -log10EC50 and -6.19 -log10EC50,–
AVAEIQLMHQRAKWKLELELKVKLLEILKDVY [R2-25],–,–,–,-8.37 -log10EC50 and -8.76 -log10EC50
